Reference: article PMC5575007, “Intermolecular base stacking mediates RNA-RNA interaction in a crystal structure of the RNA chaperone Hfq”

Legend:
[1] = target: T1, Hfq102R16A,R17A (Escherichia coli, UniProt P0A6X3 1-102, R16A;R17A); assay: EMSA; two shifted bands; ITC/FA: 0.25 M NaCl, 20 mM Hepes/NaOH pH 8.0, 5 mM MgCl2, 2% glycerol, 25 C (FA plus 1 g/l BSA); EMSA: 0.25 M NaCl, 50 mM Tris pH 7.5, 10% glycerol, 25 C, 20 nM RNA, 2-200 nM Hfq; details: protein: recombinant; tags: 6xHis-SUMO tag cleaved (SenP2); chain copies: 6; label: none (AUC, ITC); 5'-32P (EMSA)
[2] = target: T2, Hfq72 (Escherichia coli, UniProt P0A6X3 1-72); assay: ITC; first of two events; ITC/FA: 0.25 M NaCl, 20 mM Hepes/NaOH pH 8.0, 5 mM MgCl2, 2% glycerol, 25 C (FA plus 1 g/l BSA); EMSA: 0.25 M NaCl, 50 mM Tris pH 7.5, 10% glycerol, 25 C, 20 nM RNA, 2-200 nM Hfq; details: protein: recombinant; tags: 6xHis-SUMO tag cleaved (SenP2); chain copies: 6; label: none (AUC, ITC); 5'-32P (EMSA)
[3] = target: T1, Hfq102R16A,R17A; assay: EMSA; significant supershift; ITC/FA: 0.25 M NaCl, 20 mM Hepes/NaOH pH 8.0, 5 mM MgCl2, 2% glycerol, 25 C (FA plus 1 g/l BSA); EMSA: 0.25 M NaCl, 50 mM Tris pH 7.5, 10% glycerol, 25 C, 20 nM RNA, 2-200 nM Hfq; details: protein: recombinant; tags: 6xHis-SUMO tag cleaved (SenP2); chain copies: 6; label: 5'-32P
[4] = target: T3, Hfq102 (Escherichia coli, UniProt P0A6X3 1-102); assay: AUC; s = 4.5S alone; with fhlA segment ternary s = 5.9S; ITC/FA: 0.25 M NaCl, 20 mM Hepes/NaOH pH 8.0, 5 mM MgCl2, 2% glycerol, 25 C (FA plus 1 g/l BSA); EMSA: 0.25 M NaCl, 50 mM Tris pH 7.5, 10% glycerol, 25 C, 20 nM RNA, 2-200 nM Hfq; details: protein: recombinant; tags: 6xHis-SUMO tag cleaved (SenP2); chain copies: 6; label: 3' Cy5 or Cy3
[5] = target: T3, Hfq102; assay: AUC; s = 4.5S alone; with OxyS segment ternary s = 5.9S; ITC/FA: 0.25 M NaCl, 20 mM Hepes/NaOH pH 8.0, 5 mM MgCl2, 2% glycerol, 25 C (FA plus 1 g/l BSA); EMSA: 0.25 M NaCl, 50 mM Tris pH 7.5, 10% glycerol, 25 C, 20 nM RNA, 2-200 nM Hfq; details: protein: recombinant; tags: 6xHis-SUMO tag cleaved (SenP2); chain copies: 6; label: 3' Cy3 or Cy5
[6] = target: T2, Hfq72; assay: fluorescence anisotropy; first of two events; 1 g/l BSA; ITC/FA: 0.25 M NaCl, 20 mM Hepes/NaOH pH 8.0, 5 mM MgCl2, 2% glycerol, 25 C (FA plus 1 g/l BSA); EMSA: 0.25 M NaCl, 50 mM Tris pH 7.5, 10% glycerol, 25 C, 20 nM RNA, 2-200 nM Hfq; details: protein: recombinant; tags: 6xHis-SUMO tag cleaved (SenP2); chain copies: 6; label: 3'-ATTO488
[7] = target: T2, Hfq72; assay: X-ray crystallography; 2.5 A; distal face; (Hfq6:A18)2 dimer by N-site base stacking; pH 4.2; ITC/FA: 0.25 M NaCl, 20 mM Hepes/NaOH pH 8.0, 5 mM MgCl2, 2% glycerol, 25 C (FA plus 1 g/l BSA); EMSA: 0.25 M NaCl, 50 mM Tris pH 7.5, 10% glycerol, 25 C, 20 nM RNA, 2-200 nM Hfq; details: protein: recombinant; tags: 6xHis-SUMO tag cleaved (SenP2); chain copies: 6

AAAAAAAAAAAAAAAAAAAA (ssRNA) [A20]
binding result [1]: binds
Kd [2]: 1.3 nM

AAGAAGAAGAAGAAGAAGAA (ssRNA) [AAG]
binding result [3]: binds

UCAACUCGAAUAACUAAAGCCAACGUGAAC (ssRNA) [OxyS (ARN)X segment]
binding result [4]: binds

CUAAUAAAAUUCUACCUAGAAGAACAAAAUGUC (ssRNA) [fhlA (ARN)X segment]
binding result [5]: binds

AAAAAAAAAAAAAAAAAAAA (ssRNA) [A20-ATTO488]
Kd [6]: 0.4 nM

AAAAAAAAAAAAAAAAAA (ssRNA) [A18 (ordered part of A30)]
binding result [7]: binds
